{"source": "paper PMC6582323", "about": "(Nucleic Acids Research, 2019)", "binders": {"B1": {"name": "Cyanothece PCC7424 McdB (wild type) (natural protein, Cyanothece sp. PCC 7424, UniProt B7KMS5 1-156, looked up)", "chain": "MSNNALDRLINKQKPKVPPRNDVVSESVSNDIKTQGQQELNTSLPPSDTKATPEEMPTSHESETSLSQDQKPKLSPDTFETVRNTIRIESEVDESLRQLCHEERITKETWLEAAYLYLCEKPEELAQVIQLAQERLSQRKAIADYKRAKTMQERFL"}}, "key": {"crystal structure": {"biological_target": "the molecule itself", "assay": "crystal structure"}, "[1]": {"biological_target": "T1, Cyanothece PCC7424 McdA(D38A) (Cyanothece sp. PCC 7424, UniProt B7KMS4 1-258, D38A)", "T1 sequence (looked up)": "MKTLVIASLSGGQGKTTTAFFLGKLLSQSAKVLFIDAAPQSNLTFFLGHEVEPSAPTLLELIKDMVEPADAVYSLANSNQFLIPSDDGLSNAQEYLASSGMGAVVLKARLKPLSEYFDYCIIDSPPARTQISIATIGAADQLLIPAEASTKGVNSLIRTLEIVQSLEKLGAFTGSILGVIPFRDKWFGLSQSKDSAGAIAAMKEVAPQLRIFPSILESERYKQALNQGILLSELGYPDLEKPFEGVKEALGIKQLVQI", "assay": "fluorescence polarisation"}}}
{"binder": "B1", "values": [{"measurement": "stoichiometry N", "setting": "crystal structure", "result": 2}, {"measurement": "Kd", "setting": "[1]", "result": 1.1, "unit": "µM"}]}
